Assay results reported in US20120316071A1 (published 2012).

Key:
[1] = molecular target: T1, rHuman EGF R/Fc Chimera, CF (R&D Systems Cat#344-ER) (human, UniProt P00533 25-645); test: ECL Multispot (MSD) assay, antigen spotted on plate, 10 nM Fab; blank spot 378
T1 construct: Bought recombinant Fc chimera; also called epidermal growth factor receptor; Fc part of the bought chimera not given

[2] = molecular target: T2, rHuman HGF R/c-MET/Fc Chimera, CF (R&D Systems Cat#358-MT/CF) (human, UniProt P08581 25-932); test: as above
T2 construct: Bought recombinant Fc chimera; also called HGF R/Fc; hepatocyte growth factor receptor; Fc part of the bought chimera not given
T2 sequence (P08581 25-932, change not shown): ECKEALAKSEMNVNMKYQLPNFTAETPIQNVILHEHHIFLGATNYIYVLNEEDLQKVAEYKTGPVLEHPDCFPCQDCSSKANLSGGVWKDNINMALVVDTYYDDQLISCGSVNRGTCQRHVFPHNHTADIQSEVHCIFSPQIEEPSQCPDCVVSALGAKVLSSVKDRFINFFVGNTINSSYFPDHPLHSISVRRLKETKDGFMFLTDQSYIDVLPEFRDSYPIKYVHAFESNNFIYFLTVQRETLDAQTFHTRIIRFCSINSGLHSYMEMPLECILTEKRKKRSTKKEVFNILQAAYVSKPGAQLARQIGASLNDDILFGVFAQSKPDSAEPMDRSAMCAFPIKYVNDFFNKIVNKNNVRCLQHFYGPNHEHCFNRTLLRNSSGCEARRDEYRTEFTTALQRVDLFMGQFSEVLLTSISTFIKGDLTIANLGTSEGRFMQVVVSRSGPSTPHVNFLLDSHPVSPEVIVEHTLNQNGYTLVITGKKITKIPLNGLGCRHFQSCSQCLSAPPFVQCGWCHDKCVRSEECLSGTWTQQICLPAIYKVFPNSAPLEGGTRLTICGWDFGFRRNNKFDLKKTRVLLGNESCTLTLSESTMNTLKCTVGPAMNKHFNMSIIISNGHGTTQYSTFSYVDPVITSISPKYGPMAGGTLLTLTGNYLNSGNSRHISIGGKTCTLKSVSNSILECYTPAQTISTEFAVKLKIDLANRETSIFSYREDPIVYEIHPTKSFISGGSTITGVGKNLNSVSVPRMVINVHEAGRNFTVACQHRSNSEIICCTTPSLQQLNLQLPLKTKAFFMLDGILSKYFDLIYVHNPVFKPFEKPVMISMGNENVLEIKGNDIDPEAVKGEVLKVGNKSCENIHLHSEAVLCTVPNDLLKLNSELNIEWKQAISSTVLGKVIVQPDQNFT

[3] = molecular target: T3, rHuman Notch-1/Fc Chimera, CF (R&D Systems Cat#3647-TK) (human, UniProt P46531 19-526); test: as above
T3 construct: Bought recombinant Fc chimera; Fc part of the bought chimera not given

[4] = molecular target: T4, rHuman CD44/Fc Chimera, CF (R&D Systems Cat#3660-CD) (human, UniProt P16070 21-220); test: as above
T4 construct: Bought recombinant Fc chimera; Fc part of the bought chimera not given

[5] = molecular target: T5, rHuman IGF-1 sR, CF (R&D Systems Cat#391-GR) (human, UniProt P08069 31-932); test: as above
T5 construct: Bought soluble receptor; also called insulin-like growth factor-1 soluble receptor

[6] = molecular target: T6, rHuman P-Cadherin/Fc Chimera, CF (R&D Systems Cat#861-PC) (human, UniProt P22223 108-654); test: as above
T6 construct: Bought recombinant Fc chimera; Fc part of the bought chimera not given

[7] = molecular target: T7, rHuman Erythropoietin R/Fc Chimera, CF (R&D Systems Cat#963-ER) (human, UniProt P19235 25-250); test: as above
T7 construct: Bought recombinant Fc chimera; also called EPO R; EPO R/Fc; Fc part of the bought chimera not given
T7 sequence (looked up): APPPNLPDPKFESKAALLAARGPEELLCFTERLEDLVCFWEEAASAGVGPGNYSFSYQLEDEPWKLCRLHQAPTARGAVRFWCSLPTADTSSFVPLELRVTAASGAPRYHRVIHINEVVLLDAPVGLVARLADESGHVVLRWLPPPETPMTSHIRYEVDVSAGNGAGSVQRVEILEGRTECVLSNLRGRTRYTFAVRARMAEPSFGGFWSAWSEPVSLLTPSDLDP

[8] = molecular target: T8, Recombinant Human DLL4 (R&D Systems Cat#1506-D4/CF) (human, UniProt Q9NR61 27-524); test: as above
T8 construct: Bought recombinant protein; also called delta-like protein 4; rHuman DLL4

[9] = molecular target: T9, rHuman ErbB2/Fc Chimera, CF (R&D Systems Cat#1129-ER) (human, UniProt P04626 23-652); test: as above
T9 construct: Bought recombinant Fc chimera; also called human epidermal growth factor 2 receptor; Fc part of the bought chimera not given

[10] = molecular target: T1, rHuman EGF R/Fc Chimera, CF (R&D …); test: ECL Multispot (MSD) assay, antigen spotted on plate, 10 nM Fab; blank spot 302
[11] = molecular target: T2, rHuman HGF R/c-MET/Fc Chimera, CF (R&D …); test: as above
[12] = molecular target: T3, rHuman Notch-1/Fc Chimera, CF (R&D …); test: as above
[13] = molecular target: T4, rHuman CD44/Fc Chimera, CF (R&D Systems …); test: as above
[14] = molecular target: T5, rHuman IGF-1 sR, CF (R&D Systems …); test: as above
[15] = molecular target: T6, rHuman P-Cadherin/Fc Chimera, CF (R&D …); test: as above
[16] = molecular target: T7, rHuman Erythropoietin R/Fc Chimera, CF …; test: as above
[17] = molecular target: T8, Recombinant Human DLL4 (R&D Systems …); test: as above
[18] = molecular target: T9, rHuman ErbB2/Fc Chimera, CF (R&D …); test: as above
[19] = molecular target: T1, rHuman EGF R/Fc Chimera, CF (R&D …); test: ECL Multispot (MSD) assay, antigen spotted on plate, 10 nM Fab; blank spot 271
[20] = molecular target: T2, rHuman HGF R/c-MET/Fc Chimera, CF (R&D …); test: as above
[21] = molecular target: T3, rHuman Notch-1/Fc Chimera, CF (R&D …); test: as above
[22] = molecular target: T4, rHuman CD44/Fc Chimera, CF (R&D Systems …); test: as above
[23] = molecular target: T5, rHuman IGF-1 sR, CF (R&D Systems …); test: as above
[24] = molecular target: T6, rHuman P-Cadherin/Fc Chimera, CF (R&D …); test: as above
[25] = molecular target: T7, rHuman Erythropoietin R/Fc Chimera, CF …; test: as above
[26] = molecular target: T8, Recombinant Human DLL4 (R&D Systems …); test: as above
[27] = molecular target: T9, rHuman ErbB2/Fc Chimera, CF (R&D …); test: as above
[28] = molecular target: T1, rHuman EGF R/Fc Chimera, CF (R&D …); test: ECL Multispot (MSD) assay, antigen spotted on plate, 10 nM Fab; blank spot 296
[29] = molecular target: T2, rHuman HGF R/c-MET/Fc Chimera, CF (R&D …); test: as above
[30] = molecular target: T3, rHuman Notch-1/Fc Chimera, CF (R&D …); test: as above
[31] = molecular target: T4, rHuman CD44/Fc Chimera, CF (R&D Systems …); test: as above
[32] = molecular target: T5, rHuman IGF-1 sR, CF (R&D Systems …); test: as above
[33] = molecular target: T6, rHuman P-Cadherin/Fc Chimera, CF (R&D …); test: as above
[34] = molecular target: T7, rHuman Erythropoietin R/Fc Chimera, CF …; test: as above
[35] = molecular target: T8, Recombinant Human DLL4 (R&D Systems …); test: as above
[36] = molecular target: T9, rHuman ErbB2/Fc Chimera, CF (R&D …); test: as above

B1: Fab VH1-46_IGHD6-6*01_IGHJ1*01 S102A/S103P/S104F/H111F S84G & L6_IGKJ1*01 (Fab, V domains shown)
VH: QVQLVQSGAEVKKPGASVKVSCKASGYTFTSYYMHWVRQAPGQGLEWMGIINPSGGSTSYAQKFQGRVTMTRDTSTSTVYMELGSLRSEDTAVYYCAREEYAPFSAEYFQFWGQGTLVTVSS
VL: not shown
notes: Fab expressed in E. coli: VH joined to CH1 from Plasmid A (with His6 and Flag tags), VL joined to kappa CL from Plasmid C; also called APFF S84G
B1 was tested, and the ECL signal [1] was 435, the ECL signal [2] was 419 and the ECL signal [3] was 473. For the same binder, the ECL signal [4] was 457, the ECL signal [5] was 395 and the ECL signal [6] was 434. It also gave an ECL signal [7] of 429, an ECL signal [8] of 131000 and an ECL signal [9] of 299.

B2: Fab VH1-46_IGHD6-6*01_IGHJ1*01 S102A/S103P/S104F/H111F S84H & L6_IGKJ1*01 (Fab, V domains shown)
VH: QVQLVQSGAEVKKPGASVKVSCKASGYTFTSYYMHWVRQAPGQGLEWMGIINPSGGSTSYAQKFQGRVTMTRDTSTSTVYMELHSLRSEDTAVYYCAREEYAPFSAEYFQFWGQGTLVTVSS
VL: not shown
notes: Fab expressed in E. coli: VH joined to CH1 from Plasmid A (with His6 and Flag tags), VL joined to kappa CL from Plasmid C; also called APFF S84H
Work on B2 yielded an ECL signal [10] of 306, an ECL signal [11] of 374 and an ECL signal [12] of 331. It also gave an ECL signal [13] of 382, an ECL signal [14] of 353 and an ECL signal [15] of 319. It also gave an ECL signal [16] of 318, an ECL signal [17] of 138000 and an ECL signal [18] of 301.

B3: Fab VH1-46_IGHD6-6*01_IGHJ1*01 S102A/S103P/S104F/H111F S84N & L6_IGKJ1*01 (Fab, V domains shown)
VH: QVQLVQSGAEVKKPGASVKVSCKASGYTFTSYYMHWVRQAPGQGLEWMGIINPSGGSTSYAQKFQGRVTMTRDTSTSTVYMELNSLRSEDTAVYYCAREEYAPFSAEYFQFWGQGTLVTVSS
VL: not shown
notes: Fab expressed in E. coli: VH joined to CH1 from Plasmid A (with His6 and Flag tags), VL joined to kappa CL from Plasmid C; also called APFF S84N
For B3, the ECL signal [19] was 337, the ECL signal [20] was 375 and the ECL signal [21] was 309. It also gave an ECL signal [22] of 251, an ECL signal [23] of 324 and an ECL signal [24] of 167. The ECL signal [25] was 415, the ECL signal [26] was 135000 and the ECL signal [27] was 307.

B4: Fab VH1-46_IGHD6-6*01_IGHJ1*01 S102A/S103P/S104F/H111F S84Q & L6_IGKJ1*01 (Fab, V domains shown)
VH: QVQLVQSGAEVKKPGASVKVSCKASGYTFTSYYMHWVRQAPGQGLEWMGIINPSGGSTSYAQKFQGRVTMTRDTSTSTVYMELQSLRSEDTAVYYCAREEYAPFSAEYFQFWGQGTLVTVSS
VL: not shown
notes: Fab expressed in E. coli: VH joined to CH1 from Plasmid A (with His6 and Flag tags), VL joined to kappa CL from Plasmid C; also called APFF S84Q
For B4, the ECL signal [28] was 347, the ECL signal [29] was 255 and the ECL signal [30] was 416. The ECL signal [31] was 372, the ECL signal [32] was 373 and the ECL signal [33] was 357. For the same binder, the ECL signal [34] was 288, the ECL signal [35] was 122000 and the ECL signal [36] was 311.
